Measured values from patent US20240392003A1 (NUMAB THERAPEUTICS, published 2024).
Each block holds one binder with its values, some of them ahead of it.

Legend:
[1] = target: T1, human ROR1 expressed on cells (human, UniProt Q01973 30-937); test: flow cytometry, MDA-MB-231 cells, 1 mg/ml hSA
T1 construct: whole, on cells; One molecule for cell-surface ROR1 on all cell lines; the cell line is named under assay; also called hROR1; plasma membrane human ROR1

[2] = target: T2, recombinant human ROR1 protein (Fc-Tag, Acro Biosystems RO1-H5250) (human, UniProt Q01973 30-406); test: SPR; hROR1-Fc immobilized;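 note: biacore T200 SPR with ROR1 covalently coupled to a CM5 chip, analyte titration series, apparent rate and equilibrium constants fitted with a 1:1 Langmuir model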
T2 construct: Bought; also called hROR1; recombinant human ROR1 ECD; not shown: Fc tag

[3] = target: T3, recombinant human CD3 epsilon extra-cellular domain protein (His-Tag, SinoBiological) (human, UniProt P07766 23-126); test: SPR; hCD3ε immobilized, two-state fit;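 note: biacore T200 measurement with target covalently coupled to a CM5 chip, antibody constructs injected as analyte over a concentration series, constants derived in Biacore Evaluation software 3.2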
T3 construct: extracellular domain; Bought; also called hCD3ε; human CD3ε; not shown: His tag

[4] = target: T3, recombinant human CD3 epsilon …; test: SPR; hCD3ε immobilized, two-state fit (kd1)
Procedure: Binding kinetics (including affinity) of the nine selected scMATCH3 molecules to recombinant human CD3 epsilon extra-cellular domain protein (hCD3ε; His-Tag, SinoBiological) were determined by SPR analysis on a T200 device (Biacore, Cytiva). Recombinant hCD3ε molecules were covalently immobilized to a carboxymethylated dextran surface (CM5 sensorchip; Biacore, Cytiva) and a titration series of each MATCH3 molecule was injected as analyte. After each analyte injection-cycle, every flow channel on the sensor chip was regenerated (Glycine, pH 2.0 and 3 M MgCl₂), and a new concentration of MATCH3 molecule was injected. […] The apparent dissociation (kₐ₁) and association (kₐ₁) rate constants, the second reaction constants (kₐ₂ and kd) and the apparent dissociation equilibrium constant (KD) were calculated with the Biacore analysis software (Biacore Evaluation software Version 3.2, Cytiva) using a two-state binding model, and quality of the fits was monitored based on relative Chi2. The binding level was calculated as the maximum stability binding achieved normalized to the theoretical Rmax.

[5] = target: T3, recombinant human CD3 epsilon …; test: SPR; hCD3ε immobilized, two-state fit (ka1)
[6] = target: T1, human ROR1 expressed on cells; test: flow cytometry, MDA-MB-231 cells, 1 mg/ml hSA; remark: listed apart in the source
Procedure: After incubation at 4° C. for 1 h in presence of 1 mg/mi of human serum albumin (hSA), plates were washed and incubated with specific detection antibodies.
The binding of anti-ROR1xhSAxCD3 scMATCH3 molecules to plasma membrane human ROR1 was assessed by flow cytometry.

binding result [1]: binds
B1: PRO2658 (bispecific antibody)
chain 1: AQQLTQSPSSLSASVGDRVTITCQASQNVWNNNYLSWFQQKPGKPPKLLIVTASTLASGVSSRFSGSGSGTDFTLTISSLQPEDFATYYCAGGFSGEIRAFGTGTKVTVLGGGGGSGGGGSGGGGSGGGGSQSQLVESGGGLVQPGGSLRLSCAVSGLSLSRNAMSWVRQAPGKGLEWIGIILTSGSTYYASWAKGRFTISKDNSKNTVYLQMNSLRAEDTAVYFCVRGIASSSLKSFWGQGTLVTVSSGGGGSGGGGSAFELTQSPSSLSASVGDRVTITCQASESINSRLAWYQQKPGQPPKLLIYDASDLTSGVPSRFSGSGSGTDFTLTISSLQPEDFATYYCQGYGGSSTTTFGCGTKLTVLGGGSGGSDIQMTQSPSSLSASVGDRVTITCQSSQSVFSNNYLAWFQQKPGQSPKRLIYSASTLASGVPSRFSGSGSGTDFTLTISSLQPEDFATYYCLGSYACSSADCYVFGTGTKVTVLG
chain 2: AQQLTQSPSSLSASVGDRVTITCQASQNVWNNNYLSWFQQKPGKPPKLLIVTASTLASGVSSRFSGSGSGTDFTLTISSLQPEDFATYYCAGGFSGEIRAFGTGTKVTVLGGGGGSGGGGSGGGGSGGGGSQSQLVESGGGLVQPGGSLRLSCAVSGLSLSRNAMSWVRQAPGKGLEWIGIILTSGSTYYASWAKGRFTISKDNSKNTVYLQMNSLRAEDTAVYFCVRGIASSSLKSFWGQGTLVTVSSGGGGSGGGGSEVQLVESGGGLVQPGGSLRLSCAASGFSLSSYDMSWVRQAPGKGLAWIGASYASGPTYYASWAKGRFTISRDNSKNTVYLQMNSLRAEDTATYFCARGGWTGTSHSNIWGQGTLVTVSSGGGSGGGSGGGSGEVQLVESGGGLVQPGGSLRLSCAASGFSLSSYAMNWVRQAPGKCLEWIGHINAGDIAYYATWAKGRFTISRDNSKNTVYLQMNSLRAEDTAVYFCARGAGGFSTGPFKLWGQGTLVTVSS
notes: heterodimeric MATCH4

Kd [2]: 0.32 nM
koff [2]: 0.0004 s⁻¹
kon [2]: 1.3e+06 M⁻¹ s⁻¹
Kd [3]: 2.1 nM
ka2 [3]: 0.0017 s⁻¹
kd2 [3]: 0.002 s⁻¹
fold lower EC50 binding than parental scFv PRO2062 [1]: ~5 fold
koff [4]: 0.0034 s⁻¹
kon [5]: 870000 M⁻¹ s⁻¹
EC50 [6]: 1.83 nM
Rel. maximum binding (MFIscMATCH3/MFIPRO2213) [6]: 1.98
B2: PRO2287 (bispecific antibody)
chain: DIQMTQSPSSLSASVGDRVTITCQSSESVYSNNQLSWYQQKPGQPPKLLIYDASDLASGVPSRFSGSGSGTDFTLTISSLQPEDFATYYCAGGFSSSSDTAFGCGTKLTVLGGGGGSEVQLVESGGGLVQPGGSLRLSCAASGFSLSSYDMSWVRQAPGKGLAWIGASYASGPTYYASWAKGRFTISRDNSKNTVYLQMNSLRAEDTATYFCARGGWTGTSHSNIWGQGTLVTVSSGGGGSGGGGSGGGGSGGGGSDIQMTQSPSSLSASVGDRVTITCQSSQSVFSNNYLAWFQQKPGQSPKRLIYSASTLASGVPSRFSGSGSGTDFTLTISSLQPEDFATYYCLGSYACSSADCYVFGTGTKVTVLGGGGGSEVQLVESGGGLVQPGGSLRLSCAASGFSLSSNAMGWVRQAPGKCLEYIGIISVGGFTYYASWAKGRFTISRDNSKNTVYLQMNSLRAEDTATYFCARDRHGGDSSGAFYLWGQGTLVTVSSGGGGSGGGGSAQQLTQSPSSLSASVGDRVTITCQASQNVWNNNYLSWFQQKPGKPPKLLIVTASTLASGVSSRFSGSGSGTDFTLTISSLQPEDFATYYCAGGFSGEIRAFGTGTKVTVLGGGGGSGGGGSGGGGSGGGGSQSQLVESGGGLVQPGGSLRLSCAVSGLSLSRNAMSWVRQAPGKGLEWIGIILTSGSTYYASWAKGRFTISKDNSKNTVYLQMNSLRAEDTAVYFCVRGIASSSLKSFWGQGTLVTVSS
notes: trispecific anti-ROR1 x hSA x CD3 scMATCH3, single chain; also called 19-01-H04-sc02/3 diS scDb-o/28-21-D09-sc04 scDb-i/55-39-G02-sc02 scFv
